This assay has as its target Blinkin (UniProt Q8NG31). Put plainly: GST pull-down from mitotic lysate. Particulars: sites Y207.

As to “Bub3 (from UniProt O43684) GST-Bub3 WT with His-PKM2 and PEP”, the “binding against the reference” value (reference: GST-Bub3 WT with His-PKM2, no PEP) is “stronger” and the “binding against the reference” value (reference: GST-Bub3 WT, PEP, no His-PKM2) is listed as “stronger”.

For the substance “Bub3 (from UniProt O43684) GST-Bub3 WT incubated with His-PKM2”, the “binding against the reference” value (reference: GST-Bub3 WT without His-PKM2) is on record as “stronger”.

Values taken from article PMC3955203.
